Data set [1] has as its system TePif1 (Thermotoga elfii (Pseudothermotoga elfii)). In words: EMSA. Background: In EMSA bound probe runs differently from free probe, usually more slowly.
Data set [2] relates to TePif1-4x (Thermotoga elfii (Pseudothermotoga elfii)). The data set is described as follows: EMSA.

In general, Kd refers to a measure of binding affinity in units of concentration. Lower therefore signals higher affinity.

Turning to 5' tail, the Kd in data set [1] is 4.53 nM. Turning to 3' tail, in data set [1], the binding signal was over 20 % bound.

Consider “TTTTTTTTTTTTTTTTTTTTTTTTTTTTTTTTTTTTTTTTTTTTTTTTTT [poly(dT) 50mer]”, for which, in data set [2], the binding signal came out at 5 % bound. In turn, ssDNA 45-nt registered a dissociation constant (Kd) in data set [1] of 0.93 nM. For the substance Fork, the dissociation constant Kd in data set [1] came out at 4.4 nM.

The values above are taken from doi:10.1101/163188.
